From the supplement of paper PMC7125110
± gives the standard error. This sample holds only a part of the variants without activity.

B1: glmS ribozyme (parent)
chain: AUAAAAGCGCCAGAACUACAGAAAUGUAGUUGACGAGGAGGAGGUUUAUCGAAUUUUCGGCGGAUGCCUCCAAA

Tests used:
Conditions in all cases: with glucosamine-6-phosphate
[1] = variants of: B1; assay: self-cleavage kobs at 640 uM GlcN6P; higher = faster cleavage; RNA array
In short: (§1)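 Barcoded ribozyme variants were transcribed in situ on sequenced MiSeq chips by E. coli RNA polymerase. At 37 °C, a hybridised Cy3 probe tracked them while glucosamine-6-phosphate (40 μM to 10 mM) in HEPES/KCl/Mg(OAc)2 buffer flowed in and tiles were imaged over ~14 h. Per-tile medians of signals normalised to baseline and to non-cleaving reference variants were fit to one- or two-exponential decays, giving kobs. kcat and KM came from weighted Michaelis–Menten fits across concentrations.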

[2] = variants of: B1; assay: self-cleavage kobs at 2500 uM GlcN6P; higher = faster cleavage; RNA array
In short: as §1

[3] = variants of: B1; assay: self-cleavage kobs at 10000 uM GlcN6P; higher = faster cleavage; RNA array
In short: as §1

Variant | self-cleavage kobs at 640 uM GlcN6P [1] [s⁻¹] | self-cleavage kobs at 2500 uM GlcN6P [2] [s⁻¹] | self-cleavage kobs at 10000 uM GlcN6P [3] [s⁻¹]
U45G U54C C61U | < 1e-05 | < 1e-05 | 
U47G U49A A52U | < 1e-05 |  | 
A39G C58G G60C | < 1e-05 | < 1e-05 | < 1e-05
A6C G9C G35A A52G C68U |  | < 1e-05 | 
A42C G44U | < 1e-05 |  | < 1e-05
G60C C70A | < 1e-05 |  | < 1e-05
G43C U46A A48C | < 1e-05 | < 1e-05 | < 1e-05
C50A C67U C70G | 6.04e-05 ± 2.3e-05 |  | 
A53U C58A C68U | 9.67e-05 ± 3.2e-05 | 6.03e-05 ± 2e-05 | 
A42C U46G U49A | < 1e-05 |  | 
A42C U56C G60U | < 1e-05 |  | 
A6C A39C C68U |  | < 1e-05 | 
G51C G63U | < 1e-05 |  | < 1e-05
G40U G41U U49G C61G | < 1e-05 | < 1e-05 | 
G40A A42G G51U U57A U69C | < 1e-05 |  | 
A6C G37C |  | < 1e-05 | < 1e-05
U47G A52U C68G | 0.000113 ± 4.9e-05 |  | 
G41C C50U G59U | < 1e-05 |  | 
U47G U55A C68G C71G | 0.000142 ± 4.5e-05 |  | 4.14e-05 ± 1.5e-05
U47A A48U C58G | < 1e-05 | < 1e-05 | 
G40C G41U G43U | < 1e-05 | < 1e-05 | 
C58U C61G C67U | 7.86e-05 ± 3.1e-05 |  | 

Variant | self-cleavage kobs at 640 uM GlcN6P [1] [s⁻¹] | self-cleavage kobs at 2500 uM GlcN6P [2] [s⁻¹] | self-cleavage kobs at 10000 uM GlcN6P [3] [s⁻¹]
U46G G51U U56G U69G | 0.000445 ± 0.00011 |  | 
A6G G29C U31C |  | < 1e-05 | 
U46C G59C | < 1e-05 |  | 
A6C A36G C61G G66A |  | < 1e-05 | 
A6G C11G U69G |  | 7.2e-05 ± 2.9e-05 | 
G62U G63U G66C | < 1e-05 | < 1e-05 | 
U57C G62C C68G | < 1e-05 |  | 
A6G G38A G40A G60C |  | < 1e-05 | < 1e-05
G41C A64C C67A | < 1e-05 |  | 
G40U U45C | 0.000101 ± 2.7e-05 | 0.000729 ± 0.00014 | 0.000329 ± 7e-05
U45C U54G U56A | 0.000123 ± 2.3e-05 | 0.000428 ± 0.00012 | 0.000928 ± 0.00017
A6G C10G U30A G32U U56G |  | < 1e-05 | 
C50U C61A A64U C67G | 8.84e-05 ± 4.2e-05 | 9.68e-05 ± 4.1e-05 | 
G44U A48U A64G C67G | 0.000188 ± 7.9e-05 | 0.000485 ± 0.00017 | 
U49A C50A C70G | 5.26e-05 ± 2.2e-05 | 4.46e-05 ± 2e-05 | 
C58U U69A | 6.22e-05 ± 2.6e-05 |  | 
G51U C70A | 5.2e-05 ± 1.5e-05 |  | 
G41A C58A U69A | < 1e-05 | < 1e-05 | 
A39U U45G A52G C70A | < 1e-05 |  | 
U45G U69C | 0.0407 ± 0.018 |  | 
A39G G40U C58G | < 1e-05 |  | 
A6C U31C G59C G62U |  | < 1e-05 | 

Variant | self-cleavage kobs at 640 uM GlcN6P [1] [s⁻¹] | self-cleavage kobs at 2500 uM GlcN6P [2] [s⁻¹] | self-cleavage kobs at 10000 uM GlcN6P [3] [s⁻¹]
A6G A14U U45C |  | < 1e-05 | 
U54G U55C U56G G59C U69G | 0.000119 ± 4.3e-05 | 6.83e-05 ± 2.7e-05 | 
A48U C50G C70U | 9.42e-05 ± 2.9e-05 |  | 
C58U G62A C68G | 6.69e-05 ± 2.4e-05 |  | 
A39U U55C U65G | 0.000491 ± 0.00014 | 0.00164 ± 0.00045 | 
U57G G59U | < 1e-05 | < 1e-05 | < 1e-05
G44A U46A G62A | < 1e-05 |  | 
G41U G59U G63U | < 1e-05 |  | 
A42C A48U C68G | < 1e-05 |  | 
A52C U54G | < 1e-05 |  | 
G51U C67U U69C | 5.75e-05 ± 2.5e-05 |  | 
G44U A48U C67U | 0.000119 ± 4.8e-05 | 0.000418 ± 0.00012 | 
U46G U57C G60U | < 1e-05 |  | 
A48C U49G | < 1e-05 |  | < 1e-05
G51C U56A | < 1e-05 |  | < 1e-05
G51C U56G | < 1e-05 | < 1e-05 | < 1e-05
G43A A48U C50A | < 1e-05 | < 1e-05 | 
C50G C61A C67U | 0.000392 ± 0.0001 | 5.47e-05 ± 2.1e-05 | 
C58U C67U U69A | 6.03e-05 ± 2.7e-05 | 0.000214 ± 9e-05 | 
G43U C70G C71A | < 1e-05 | < 1e-05 | 
A6C A39G G51C |  | < 1e-05 | 
C50U G63U C68G | 0.000126 ± 5e-05 | 7.59e-05 ± 3.2e-05 | 
